US20260055211A1

Experiments:
[1] = biological target: anti-PR3 autoantibodies in PR3+ANCA patient serum; assay: blocking ELISA: 1:100 serum pre-incubated 30 min with 0 to 100 µg/ml m1, c-ANCA ELISA kit; patient samples 1, 7, 24 and 58
[2] = biological target: anti-PR3 autoantibodies in PR3+ANCA patient serum; assay: depletion with m1-coated magnetic beads (1 mg beads, 1:50 serum, 10 min), flow-through measured by c-ANCA ELISA; five patient sera
[3] = biological target: anti-PR3 autoantibodies in PR3+ANCA patient serum; assay: blocking ELISA: 1:100 serum pre-incubated 30 min with 0 to 600 µg/ml m1, c-ANCA ELISA kit; 14 out of 15 patient sera of low, medium and high titer
[4] = biological target: anti-PR3 autoantibodies in PR3+ANCA patient serum; assay: competition ELISA, low-titer serum ANCA 93 (1:100) pre-incubated with the binder, unblocked anti-PR3 IgG on a c-ANCA (PR3) ELISA kit, % of untreated
[5] = biological target: anti-PR3 autoantibodies in PR3+ANCA patient serum; assay: competition ELISA: serum PR3+ ANCA 1 (1:100) pre-incubated with the binder, unblocked anti-PR3 IgG measured on a c-ANCA (PR3) ELISA kit, % of untreated
[6] = biological target: anti-PR3 autoantibodies in PR3+ANCA patient serum; assay: competition ELISA, medium-titer serum ANCA 65 (1:100) pre-incubated with the binder, unblocked anti-PR3 IgG on a c-ANCA (PR3) ELISA kit, % of untreated
[7] = biological target: anti-PR3 autoantibodies in PR3+ANCA patient serum; assay: competition ELISA, medium-titer serum ANCA 97 (1:100) pre-incubated with the binder, unblocked anti-PR3 IgG on a c-ANCA (PR3) ELISA kit, % of untreated
[8] = biological target: anti-PR3 autoantibodies in PR3+ANCA patient serum; assay: pull-down with binder-coated magnetic beads, serum PR3+ ANCA 4; 100 - (anti-PR3 IgG after binder beads / after control-protein beads x 100), c-ANCA ELISA
[9] = biological target: anti-PR3 autoantibodies in PR3+ANCA patient serum; assay: pull-down with binder-coated magnetic beads, serum PR3+ ANCA 60; 100 - (anti-PR3 IgG after binder beads / after control-protein beads x 100), c-ANCA ELISA
[10] = biological target: anti-PR3 autoantibodies in PR3+ANCA patient serum; assay: pull-down with binder-coated magnetic beads, serum PR3+ ANCA 91; 100 - (anti-PR3 IgG after binder beads / after control-protein beads x 100), c-ANCA ELISA
[11] = biological target: anti-PR3 autoantibodies in PR3+ANCA patient serum; assay: pull-down with binder-coated magnetic beads, serum PR3+ ANCA 93; 100 - (anti-PR3 IgG after binder beads / after control-protein beads x 100), c-ANCA ELISA
[12] = biological target: anti-PR3 autoantibodies in PR3+ANCA patient serum; assay: pull-down with binder-coated magnetic beads, serum PR3+ ANCA 97; 100 - (anti-PR3 IgG after binder beads / after control-protein beads x 100), c-ANCA ELISA

B1: PR3 glycoengineered polypeptide (protein)
chain: IVGGHEAQPHSRPYMASLQMRGNPGSHFCGGTLIHPSFVLTAAHCLRDIPQRLVNVVLGAHNVRTQEPTQQHFSVAQVFLNNYDAENKLNDVLLIQLSSPANLSASVATVQLPQQDQPVPHGTQCLAMGWGRVGAHDPPAQVLQELNVTVVTAACRPHNICTFVPRRKAGICFGDAGGPLICDGIIQGIDSFVIWGCATRAAPDFFTRVALYVDWIRSTLRRVEAKGRPGGGGANSTAPAPAPAHHHHHHHHHH
modifications: N-glycans (81.5% A2GalNAc2, biantennary GalNAc-terminated) at the native sites N129 and N174 (numbering of UniProt P24158) and at the Asn of the C-terminal glycotag; 80-90% of molecules fully …
[1]
  residual binding percentage (residual autoantibodies against untreated serum): < 50%
[2]
  percentage of depletion of anti-PR3 autoantibodies: > 50%
[3]
  residual binding percentage (residual autoantibodies against untreated serum): < 50%
[4]
  IC50 (read off the curve): 0.5 µg/mL
[5]
  IC50 (read off the curve): 0.4 µg/mL
[6]
  IC50 (read off the curve): 0.4 µg/mL
[7]
  IC50 (read off the curve): 0.2 µg/mL
[8]
  % of depletion: 81%
[9]
  % of depletion: 91%
[10]
  % of depletion: 53%
[11]
  % of depletion: 88%
[12]
  % of depletion: 51%
